The record followed here is US10590182B2, “Binding-triggered transcriptional switches and methods of use thereof” (The Regents of the University of California, priority 2015, dated 2020).

The subject of test [1] is gamma secretase. Put plainly: Chimeric Notch receiver cell activation by CD19 sender cells with or without gamma secretase inhibitor DAPT. The conditions noted are these: sender cells expressing CD19, 1 mM DAPT. The format is cell-based, mouse. An excerpt: DAPT is a gamma secretase inhibitor. The data are expressed as GFP^+ “receiver” cells.
(FIG. 86A) Mouse fibroblasts (L929 line) with anti-CD19/tTA synNotch are cultivated with sender cells expressing Delta, or CD19, or CD19 in the presence of the gamma-secretase inhibitor DAPT. FACS plots of the resulting GFP intensity in receiver cells are shown.

Test [2] deals with HCT116 colon cancer cells. Put plainly: Sensitivity of cancer cell line to recombinant TRAIL. It counts as cell-based. As to the method:
(§1) The cells were then harvested and stained with the live/dead stain, SYTOX Blue (Thermo Scientific # S34857) and the fraction of dead cells was determined by flow cytometry on a BD LSR II.

In test [3] the test system is K562 cells. The description is as above. It counts as cell-based. The procedure:
as §1

With `C[C@H](NC(=O)Cc1cc(F)cc(F)c1)C(=O)NC(C(=O)OC(C)(C)C)c1ccccc1` (stereo partly drawn) [DAPT], the “GFP+ receiver cells” value in test [1] is “at control, untreated levels”.

B1: soluble TRAIL: recombinant TRAIL, an inducer of apoptosis and a cancer therapeutic (protein, UniProt P50591 39-281, looked up)
extracellular domain: TNELKQMQDKYSKSGIACFLKEDDSYWDPNDEESMNSPCWQVKWQLRQLVRKMILRTSEETISTVQEKQQNISPLVRERGPQRVAAHITGTRGRSNTLSSPNSKNEKALGRKINSWESSRSGHSFLSNLHLRNGELVIHEKGFYYIYSQTYFRFQEEIKENTKNDKQMVQYIYKYTSYPDPILLMKSARNSCWSKDAEYGLYSIYQGGIFELKENDRIFVSVTNEHLIDMDHEASFFGAFLVG
modifications: extracellular domain
notes: recombinant TRAIL, an inducer of apoptosis and a cancer therapeutic
For B1, in test [2], the cell killing result is on record as “effective at killing”. Besides, the induction of apoptosis entry in test [3] is listed as “does not induce apoptosis even at high doses”.
